Like-named read-outs stand apart in the source and are kept apart here. Square brackets hold non-standard residues; d marks the D form. Ends that are not written are not given here. Cya = N[C@@H](CS(=O)(=O)O)C(=O)O

Assay [1] has as its target integrins (on human umbilical vein endothelial cells, HUVEC) (human). The experiment in a line: cell-based or functional assay.
For assay [2] the target is unchanged. Description: cell-based or functional assay. This is another data set of the same source.

In assay [1], “Cyclic RGD (RGD-based peptide; N-methylated cyclic-RGDf-N(Me)V; Cilengitide)” yielded an inhibition of HUVEC wound healing (scratch assay on fibronectin coated surface; peptide 1 mM) after 24 hours of 45% and an inhibition of cell adhesion in a model of wound healing using HUVEC, 12 hours of 40%.

B1: Glycinyl-Arginyl-Glycinyl-Cysteic-Threonyl-Proline-COOH (GRG Cysteic Acid TP) (peptide)
peptide: GRG[Cya]TP-OH
In assay [2], B1 registered an inhibition of HUVEC wound healing (scratch assay on fibronectin coated surface; peptide 10 mM) after 24 hours of 70% and an inhibition of cell adhesion in a model of wound healing using HUVEC, 12 hours of 74%.

The values are drawn from patent publication US20190309018A1.
